Tests used:
[1] = target: Plasmodium vivax PLP synthase domain (Pdx1) (Plasmodium vivax); test: native gel or EMSA; native PAGE of the purified proteins and of the SEC-purified Pdx complex
[2] = target: Plasmodium vivax PLP synthase domain (Pdx1) (Plasmodium vivax); test: SAXS; batch SAXS at EMBL beamline P12 (PETRA III), 293 K; Pdx1 and SEC-purified Pdx complex (mixed 1:1, overnight) at 1, 2 and 5 mg mL^-1; ab initio (GASBOR, P6) and rigid body (SASREF) models, SAXSMoW mass
[3] = target: Plasmodium vivax PLP synthase domain (Pdx1) (Plasmodium vivax); test: dynamic light scattering; purified Pdx1 alone and SEC-purified Pdx complex in a quartz cuvette, Spectroscatter-301, 660 nm laser, 90° angle
[4] = target: Plasmodium vivax PLP synthase domain (Pdx1) (Plasmodium vivax); test: negative-stain electron microscopy; Pdx1 alone, 25-30 µg mL^-1 in 20 mM Tris pH 8.0, 200 mM NaCl, 5 mM MTG, 2% uranyl acetate
[5] = target: Plasmodium vivax PLP synthase domain (Pdx1) (Plasmodium vivax); test: SEC; each protein alone on a Superdex 200 26/60 column; peak fractions evaluated by PAGE

stoichiometry N [1] | stoichiometry N [2] | stoichiometry N [3] | stoichiometry N [4] | stoichiometry N [5] | stoichiometry N (Pdx2 per Pdx1 dodecamer (12:12)) [2] | Substance
12 | 12 | 12 | 12 | 12 |  | Plasmodium vivax PLP synthase domain (Pdx1) (enzyme)
 |  |  |  |  | 12 | Plasmodium vivax glutaminase domain (Pdx2) (enzyme)

From paper PMC7504066
